Measured values published in the supplement of paper PMC9233669.
Fewer inactive variants are shown than the library holds.

How the values were obtained:
[1] = system: biotinyl-Phe-oxazolone; experiment: self-aminoacylation, catalytic enhancement (BFO) (fold over background); higher = more active; k-Seq, kA / k0A0; sequences stand for … in GGGAAUGGAUCCACAUCUACGAAUUC…UUCACUGCAGACUUGACGAAGCUG
Procedure, shortened: (§1)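 Mutagenized RNA pools with a 21-nt variable region (0.43 μM) were reacted with each biotinyl-aminoacyl-oxazolone at 2–1250 μM for 90 minutes at room temperature, in 50 μL HEPES/NaCl/KCl/MgCl2/CaCl2 buffer containing 5% acetonitrile at pH 6.9–7.0. RNA captured on streptavidin was quantified by triplicate qPCR and by Illumina sequencing. The fraction reacted for each sequence was fit to a pseudo-first-order model with bootstrapping, and catalytic enhancement is the median kA divided by the uncatalyzed rate, taken as the low-activity peak of a bimodal Gaussian fit.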

[2] = system: biotinyl-Ile-oxazolone; experiment: self-aminoacylation, catalytic enhancement (BIO) (fold over background); higher = more active; k-Seq, kA / k0A0; sequences stand for … in GGGAAUGGAUCCACAUCUACGAAUUC…UUCACUGCAGACUUGACGAAGCUG
Procedure, shortened: as §1

[3] = system: biotinyl-Met-oxazolone; experiment: self-aminoacylation, catalytic enhancement (BMO) (fold over background); higher = more active; k-Seq, kA / k0A0; sequences stand for … in GGGAAUGGAUCCACAUCUACGAAUUC…UUCACUGCAGACUUGACGAAGCUG
Procedure, shortened: as §1

[4] = system: biotinyl-Val-oxazolone; experiment: self-aminoacylation, catalytic enhancement (BVO) (fold over background); higher = more active; k-Seq, kA / k0A0; sequences stand for … in GGGAAUGGAUCCACAUCUACGAAUUC…UUCACUGCAGACUUGACGAAGCUG
Procedure, shortened: as §1

[5] = system: biotinyl-Leu-oxazolone; experiment: self-aminoacylation, catalytic enhancement (BLO) (fold over background); higher = more active; k-Seq, kA / k0A0; sequences stand for … in GGGAAUGGAUCCACAUCUACGAAUUC…UUCACUGCAGACUUGACGAAGCUG
Procedure, shortened: as §1

[6] = system: biotinyl-Trp-oxazolone; experiment: self-aminoacylation, catalytic enhancement (BWO) (fold over background); higher = more active; k-Seq, kA / k0A0; sequences stand for … in GGGAAUGGAUCCACAUCUACGAAUUC…UUCACUGCAGACUUGACGAAGCUG
Procedure, shortened: as §1

| Sequence | self-aminoacylation [1] | self-aminoacylation [2] | self-aminoacylation [3] | self-aminoacylation [4] | self-aminoacylation [5] | self-aminoacylation [6] |
| --- | --- | --- | --- | --- | --- | --- |
| CCACACUUCAAGGAAUCGGUG [Fam1B.1 aminoacylation ribozyme variant] | 52.1 | 4.9 | 7.21 | 4.61 | 10.5 | 6.57 |
| CCACACUUCAAGGAAUCGGUU [Fam1B.1 aminoacylation ribozyme variant] | 0.969 | 1.34 | 1.39 | 1.57 | 1.43 | 1.16 |
| CCACACUUCAAGGAAUCUGUC [Fam1B.1 aminoacylation ribozyme variant] | 0.473 | 0.384 | 0.442 | 0.446 | 0.318 | 0.287 |
| CCACACUUCAAGUAAUCGGUG [Fam1B.1 aminoacylation ribozyme variant] | 33.4 | 3.28 | 4.68 | 2.98 | 6.33 | 4.68 |
| CCACACUUCAAGUACUCGGUC [Fam1B.1 aminoacylation ribozyme variant] | 0.703 | 1.17 | 1.06 | 1.09 | 0.875 | 0.789 |
| CCACACUUCAAGUAUUCGGUC [Fam1B.1 aminoacylation ribozyme variant] | 0.932 | 1.63 | 1.42 | 1.64 | 1.39 | 1.52 |
| CCACACUUCAAUCAAGCGGUC [Fam1B.1 aminoacylation ribozyme variant] | 0.972 | 0.709 | 0.634 | 0.811 | 0.694 | 0.769 |
| CCACACUUCAAUCAAUCCGUC [Fam1B.1 aminoacylation ribozyme variant] | 0.663 | 0.655 | 0.641 | 0.823 | 0.61 | 0.611 |
| CCACACUUCAAUCAAUUGGUC [Fam1B.1 aminoacylation ribozyme variant] | 0.876 | 0.598 | 0.527 | 0.616 | 0.545 | 0.719 |
| CCACACUUCAAUCAGUCGGUC [Fam1B.1 aminoacylation ribozyme variant] | 0.869 | 0.963 | 0.815 | 0.796 | 0.723 | 0.687 |
| CCACACUUCACGAAAUCGGUC [Fam1B.1 aminoacylation ribozyme variant] | 0.814 | 0.987 | 1.07 | 1.09 | 1.16 | 1.02 |
| CCACACUUCACGCAAUCGAUC [Fam1B.1 aminoacylation ribozyme variant] | 0.676 | 0.568 | 0.55 | 0.606 | 0.514 | 0.618 |
| CCACACUUCACGCGAUCGGUC [Fam1B.1 aminoacylation ribozyme variant] | 6.79 | 1.46 | 1.48 | 2.17 | 1.84 | 2.37 |
| CCACACUUCACGUAAUCGGUC [Fam1B.1 aminoacylation ribozyme variant] | 0.967 | 0.892 | 0.822 | 0.914 | 0.733 | 0.591 |
| CCACACUUCAGGCAAUCGUUC [Fam1B.1 aminoacylation ribozyme variant] | 0.772 | 0.704 | 0.618 | 0.792 | 0.585 | 0.422 |
| CCACACUUCAGGCUAUCGGUC [Fam1B.1 aminoacylation ribozyme variant] | 0.514 | 1.33 | 1.1 | 1.33 | 1.23 | 1.39 |
| CCACACUUCAGGUAAUCGGUC [Fam1B.1 aminoacylation ribozyme variant] | 1.07 | 0.805 | 0.887 | 1.07 | 0.824 | 0.712 |
| CCACACUUCAUACAAUCGGUC [Fam1B.1 aminoacylation ribozyme variant] | 0.729 | 0.618 | 0.608 | 0.744 | 0.703 | 0.726 |
| CCACACUUCAUGCAAGCGGUC [Fam1B.1 aminoacylation ribozyme variant] | 0.633 | 1.08 | 0.854 | 0.835 | 1.01 | 0.681 |
| CCACACUUCAUGCAAUCGGUG [Fam1B.1 aminoacylation ribozyme variant] | 27 | 2.55 | 4.27 | 2.65 | 5.5 | 4.65 |
| CCACACUUCCAGCAACCGGUC [Fam1B.1 aminoacylation ribozyme variant] | 0.744 | 1.15 | 0.879 | 1.34 | 0.925 | 1.14 |
| CCACACUUCCAGCAAUCGCUC [Fam1B.1 aminoacylation ribozyme variant] | 1.22 | 1.69 | 1.54 | 1.83 | 1.35 | 1.59 |
| CCACACUUCCAGCAAUGGGUC [Fam1B.1 aminoacylation ribozyme variant] | 1.22 | 1.34 | 0.956 | 1.38 | 0.88 | 0.884 |
| CCACACUUCGAGCAAUCGGUA [Fam1B.1 aminoacylation ribozyme variant] | 0.573 | 0.715 | 0.716 | 1.06 | 0.849 | 1 |
| CCACACUUCGAGCAAUCGGUG [Fam1B.1 aminoacylation ribozyme variant] | 15.2 | 1.62 | 2.48 | 1.91 | 3.3 | 2.07 |
| CCACACUUCGAGCAAUUGGUC [Fam1B.1 aminoacylation ribozyme variant] | 0.518 | 0.79 | 0.721 | 0.956 | 0.747 | 0.375 |

| Sequence | self-aminoacylation [1] | self-aminoacylation [2] | self-aminoacylation [3] | self-aminoacylation [4] | self-aminoacylation [5] | self-aminoacylation [6] |
| --- | --- | --- | --- | --- | --- | --- |
| CCACACUUCUAGCAAUCGGUG [Fam1B.1 aminoacylation ribozyme variant] | 19.8 | 2.65 | 3.47 | 2.62 | 4.64 | 3.09 |
| CCACACUUCUAGCAAUCGGUU [Fam1B.1 aminoacylation ribozyme variant] | 1.17 | 1.34 | 0.978 | 1.36 | 1.13 | 1.12 |
| CCACACUUCUAGCCAUCGGUC [Fam1B.1 aminoacylation ribozyme variant] | 1.09 | 0.924 | 0.683 | 1.01 | 0.778 | 0.962 |
| CCACACUUGAAGCAAUCCGUC [Fam1B.1 aminoacylation ribozyme variant] | 0.745 | 1.02 | 0.993 | 1 | 0.905 | 0.76 |
| CCACACUUGAAGCAAUCGGUA [Fam1B.1 aminoacylation ribozyme variant] | 0.696 | 1.07 | 0.976 | 1.25 | 1.13 | 0.948 |
| CCACACUUGAAGCAAUCGGUC [Fam1B.1 aminoacylation ribozyme variant] | 0.778 | 0.836 | 0.782 | 0.926 | 0.735 | 0.805 |
| CCACACUUGAAGCCAUCGGUC [Fam1B.1 aminoacylation ribozyme variant] | 0.99 | 1.24 | 1.24 | 1.47 | 0.811 | 1.6 |
| CCACACUUGAGGCAAUCGGUC [Fam1B.1 aminoacylation ribozyme variant] | 1.28 | 1.63 | 1.48 | 1.81 | 1.6 | 1.86 |
| CCACACUUUAAGCAACCGGUC [Fam1B.1 aminoacylation ribozyme variant] | 0.959 | 0.795 | 0.613 | 0.884 | 0.844 | 0.72 |
| CCACACUUUAAGCAAUCGGCC [Fam1B.1 aminoacylation ribozyme variant] | 1.64 | 1.52 | 1.58 | 1.74 | 1.22 | 1.85 |
| CCACACUUUGAGCAAUCGGUC [Fam1B.1 aminoacylation ribozyme variant] | 0.83 | 1.05 | 0.858 | 1.06 | 0.96 | 0.721 |
| CCACAGUUCAAGCAAUGGGUC [Fam1B.1 aminoacylation ribozyme variant] | 0.542 | 1.04 | 1.03 | 1.05 | 0.763 | 0.726 |
| CCACAGUUCAAGCACUCGGUC [Fam1B.1 aminoacylation ribozyme variant] | 3.53 | 1.16 | 1.3 | 1.62 | 1.73 | 0.897 |
| CCACAUCAAACAAUCGGUCUG [Fam1A.1 aminoacylation ribozyme variant] | 1.46 | 1.13 | 1.04 | 1.07 | 1.05 | 1.98 |
| CCACAUUUCAAGCAAUCGGCC [Fam1B.1 aminoacylation ribozyme variant] | 3.98 | 3.63 | 4.62 | 3.56 | 3.19 | 4.96 |
| CCACAUUUCAAGCGAUCGGUC [Fam1B.1 aminoacylation ribozyme variant] | 1.52 | 1.54 | 1.31 | 1.64 | 1.62 | 1.16 |
| CCACAUUUCAAGCUAUCGGUC [Fam1B.1 aminoacylation ribozyme variant] | 1.03 | 1.4 | 1.1 | 1.33 | 1.16 | 1.03 |
| CCACAUUUCAAGUAAUCGGUC [Fam1B.1 aminoacylation ribozyme variant] | 2.1 | 1.21 | 1.03 | 1.05 | 1.14 | 1.77 |
| CCACAUUUCACGCAAUCGGUC [Fam1B.1 aminoacylation ribozyme variant] | 2.13 | 2.33 | 2.75 | 2.68 | 2.68 | 2.16 |
| CCACAUUUCAGGCAAUCGGUC [Fam1B.1 aminoacylation ribozyme variant] | 1.92 | 2.2 | 1.58 | 1.93 | 2.2 | 1.59 |
| CCACAUUUCCAGCAAUCGGUC [Fam1B.1 aminoacylation ribozyme variant] | 1.26 | 2.12 | 1.64 | 2.04 | 2.15 | 1.23 |
| CCACAUUUUAAGCAAUCGGUC [Fam1B.1 aminoacylation ribozyme variant] | 1.19 | 1.33 | 0.901 | 1.24 | 1.29 | 0.864 |
| CCACCCCUCAAGCAAUCGGUC [Fam1B.1 aminoacylation ribozyme variant] | 1.64 | 1.18 | 1.05 | 1.27 | 1.28 | 1.14 |
| CCACCCUGCAAGCAAUCGGUC [Fam1B.1 aminoacylation ribozyme variant] | 1.28 | 1.42 | 1.3 | 1.73 | 1.17 | 1.23 |
| CCACCCUUCAAGAAAUCGGUC [Fam1B.1 aminoacylation ribozyme variant] | 5.63 | 1.24 | 1.16 | 1.19 | 1.26 | 6.09 |
